Assay results taken from patent publication US7588931B2, “High arachidonic acid producing strains of Yarrowia lipolytica” (E. I. du Pont de Nemours and Company, priority 2004, dated 2009).

B1: Rattus norvegicus C16/18 elongase: GenBank AB071986; codon-optimized gene SEQ ID NO:52 (protein, listed as Rattus norvegicus)
chain: MDMSVLTLQEYEFEKQFNENEAIQWMQENWKKSFLFSALYAAFIFGGRHLMNKRAKFELRKPLVLWSLTLAVFSIFGALRTGAYMLYILMTKGLKQSVCDQSFYNGPVSKFWAYAFVLSKAPELGDTIFIILRKQKLIFLHWYHHITVLLYSWYSYKDMVAGGGWFMTMNYGVHAVMYSYYALRAAGFRVSRKFAMFITLSQITQMLMGCVINYLVFNWMQHDNDQCYSHFQNIFWSSLMYLSYLLLFCHFFFEAYIGKVKKATKAE
modifications: misc_feature: synthetic C16/18 elongase (codon-optimized)
B2: FBAINm: modified version of the FBAIN promoter, SEQ ID NO:163 (nucleic acid, listed as Yarrowia lipolytica)
DNA: AAATTGCCCCGGAGAAGACGGCCAGGCCGCCTAGATGACAAATTCAACAACTCACAGCTGACTTTCTGCCATTGCCACTAGGGGGGGGCCTTTTTATATGGCCAAGCCAAGCTCTCCACGTCGGTTGGGCTGCACCCAACAATAAATGGGTAGGGTTGCACCAACAAAGGGATGGGATGGGGGGTAGAAGATACGAGGATAACGGGGCTCAATGGCACAAATAAGAACGAATACTGCCATTAAGACTCGTGATCCAGCGACTGACACCATTGCATCATCTAAGGGCCTCAAAACTACCTCGGAACTGCTGCGCTGATCTGGACACCACAGAGGTTCCGAGCACTTTAGGTTGCACCAAATGTCCCACCAGGTGCAGGCAGAAAACGCTGGAACAGCGTGTACAGTTTGTCTTAACAAAAAGTGAGGGCGCTGAGGTCGAGCAGGGTGGTGTGACTTGTTATAGCCTTTAGAGCTGCGAAAGCGCGTATGGATTTGGCTCATCAGGCCAGATTGAGGGTCTGTGGACACATGTCATGTTAGTGTACTTCAATCGCCCCCTGGATATAGCCCCGACAATAGGCCGTGGCCTCATTTTTTTGCCTTCCGCACATTTCCATTGCTCGGTACCCACACCTTGCTTCTCCTGCACTTGCCAACCTTAATACTGGTTTACATTGACCAACATCTTACAAGCGGGGGGCTTGTCTAGGGTATATATAAACAGTGGCTCTCCCAATCGGTTGCCAGTCTCTTTTTTCCTTTCTTTCCCCACAGATTCGAAATCTAAACTACACATCACAGAATTCCGAGCCGTGAGTATCCACGACAAGATCAGTGTCGAGACGACGCGTTTTGTGTAATGACACAATCCGAAAGTCGCTAGCAACACACACTCTCTACACAAACTAACCCAGCTCTGGTACC
modifications: misc_feature: Promoter FBAINm
B3: EXP1: Y. lipolytica export protein promoter, SEQ ID NO:364 (nucleic acid, listed as Yarrowia lipolytica)
DNA: GGAGTTTGGCGCCCGTTTTTTCGAGCCCCACACGTTTCGGTGAGTATGAGCGGCGGCAGATTCGAGCGTTTCCGGTTTCCGCGGCTGGACGAGAGCCCATGATGGGGGCTCCCACCACCAGCAATCAGGGCCCTGATTACACACCCACCTGTAATGTCATGCTGTTCATCGTGGTTAATGCTGCTGTGTGCTGTGTGTGTGTGTTGTTTGGCGCTCATTGTTGCGTTATGCAGCGTACACCACAATATTGGAAGCTTATTAGCCTTTCTATTTTTTCGTTTGCAAGGCTTAACAACATTGCTGTGGAGAGGGATGGGGATATGGAGGCCGCTGGAGGGAGTCGGAGAGGCGTTTTGGAGCGGCTTGGCCTGGCGCCCAGCTCGCGAAACGCACCTAGGACCCTTTGGCACGCCGAAATGTGCCACTTTTCAGTCTAGTAACGCCTTACCTACGTCATTCCATGCATGCATGTTTGCGCCTTTTTTCCCTTGCCCTTGATCGCCACACAGTACAGTGCACTGTACAGTGGAGGTTTTGGGGGGGTCTTAGATGGGAGCTAAAAGCGGCCTAGCGGTACACTAGTGGGATTGTATGGAGTGGCATGGAGCCTAGGTGGAGCCTGACAGGACGCACGACCGGCTAGCCCGTGACAGACGATGGGTGGCTCCTGTTGTCCACCGCGTACAAATGTTTGGGCCAAAGTCTTGTCAGCCTTGCTTGCGAACCTAATTCCCAATTTTGTCACTTCGCACCCCCATTGATCGAGCCCTAACCCCTGCCCATCAGGCAATCCAATTAAGCTCGCATTGTCTGCCTTGTTTAGTTTGGCTCCTGCCCGTTTCGGCGTCCACTTGCACAAACACAAACAAGCATTATATATAAGGCTCGTCTCTCCCTCCCAACCACACTCACTTTTTTGCCCGTCTTCCCTTGCTAACACAAAAGTCAAGAACACAAACAACCACCCCAACCCCCTTACACACAAGACATATCTACAGCA
modifications: misc_feature: Promoter EXP1
B4: Isochrysis galbana Δ5 desaturase: codon-optimized gene SEQ ID NO:10 (protein, listed as Isochrysis galbana)
chain: MVAGKSGAAAHVTHSSTLPREYHGATNDSRSEAADVTVSSIDAEKEMIINGRVYDVSSFVKRHPGGSVIKFQLGADASDAYNNFHVRSKKADKMLYSLPSRPAEAGYAQDDISRDFEKLRLELKEEGYFEPNLVHVSYRCVEVLAMYWAGVQLIWSGYWFLGAIVAGIAQGRCGWLQHEGGHYSLTGNIKIDRHLQMAIYGLGCGMSGCYWRNQHNKHHATPQKLGTDPDLQTMPLVAFHKIVGAKARGKGKAWLAWQAPLFFGGIICSLVSFGWQFVLHPNHALRVHNHLELAYMGLRYVLWHLAFGHLGLLSSLRLYAFYVAVGGTYIFTNFAVSHTHKDVVPPTKHISWALYSANHTTNCSDSPFVNWWMAYLNFQIEHHLFPSMPQYNHPKIAPRVRALFEKHGVEYDVRPYLECFRVTYVNLLAVGNPEHSYHEHTH
modifications: misc_feature: synthetic delta-5 desaturase (codon-optimized)
B5: Homo sapiens Δ5 desaturase: GenBank NP_037534; codon-optimized gene SEQ ID NO:13 (protein, listed as Homo sapiens)
chain: MAPDPVAAETAAQGPTPRYFTWDEVAQRSGCEERWLVIDRKVYNISEFTRRHPGGSRVISHYAGQDATDPFVAFHINKGLVKKYMNSLLIGELSPEQPSFEPTKNKELTDEFRELRATVERMGLMKANHVFFLLYLLHILLLDGAAWLTLWVFGTSFLPFLLCAVLLSAVQAQAGWLQHDFGHLSVFSTSKWNHLLHHFVIGHLKGAPASWWNHMHFQHHAKPNCFRKDPDINMHPFFFALGKILSVELGKQKKKYMPYNHQHKYFFLIGPPALLPLYFQWYIFYFVIQRKKWVDLAWMITFYVRFFLTYVPLLGLKAFLGLFFIVRFLESNWFVWVTQMNHIPMHIDHDRNMDWVSTQLQATCNVHKSAFNDWFSGHLNFQIEHHLFPTMPRHNYHKVAPLVQSLCAKHGIEYQSKPLLSAFADIIHSLKESGQLWLDAYLHQ
modifications: misc_feature: synthetic delta-5 desaturase (codon-optimized)

Experiments:
Yarrowia lipolytica = test: Percent substrate conversion of desaturases and elongases expressed in Yarrowia lipolytica; type: cell-based; conditions: percent substrate conversion; for Codon-Opt. Gene % Sub. Conv.: codon-optimized gene expressed in Y. lipolytica
Procedure: The terms “conversion efficiency” and “percent substrate conversion” refer to the efficiency by which a particular enzyme (e.g., a desaturase or elongase) can convert substrate to product. The conversion efficiency is measured according to the following formula: ([product]/[substrate+product])*100, where ‘product’ includes the immediate product and all products in the pathway derived from it.
With respect to Δ12 desaturase, Applicants have made the surprising discovery that the Fusarium moniliforme Δ12 desaturase (encoded by SEQ ID NO:27) functions with greater efficiency than the native Yarrowia lipolytica Δ12 desaturase in producing 18:2 in Y. lipolytica (see WO 2005/047485). Specifically, expression of the F. moniliforme Δ12 desaturase under the control of the TEF promoter in Y. lipolytica was determined to produce higher levels of 18:2 (68% product accumulation of LA) than were previously attainable by expression of a chimeric gene encoding the Y. lipolytica Δ12 desaturase under the control of the TEF promoter (59% product accumulation of LA). This corresponds to a difference in percent substrate conversion (calculated as ([18:2+18:3]/[18:1+18:2+18:3])*100) of 85% versus 74%, respectively.
In the present invention, several desaturase and elongase genes from Table 5 were codon-optimized for expression in Yarrowia lipolytica, based on the host preferences described above. This was possible by first determining the Y. lipolytica codon usage profile (see WO 04/101757) and identifying those codons that were preferred. Then, for further optimization of gene expression in Y. lipolytica, the consensus sequence around the ‘ATG’ initiation codon was determined (i.e., ‘MAMMATGNHS’ (SEQ ID NO:356), wherein the nucleic acid degeneracy code used is as follows: M=A/C; S═C/G; H=A/C/T; and N=A/C/G/T). Table 7, below, compares the activity of native and codon-optimized genes when expressed in Y. lipolytica and provides details about each codon-optimized gene. % Sub. Conv. is the abbeviation for “percent substrate conversion” and Codon-Opt. is an abbreviation for “codon-optimized”.
Construct pDMW237 (FIG. 8C), an auto-replication plasmid comprising a chimeric FBAIN::1 g D9e::Pex20 gene, was transformed into Y. lipolytica Y2031 strain (Example 4) as described in the General Methods. Three transformants of Y2031 with pDMW237 were grown individually in MM media for two days and the cells were collected by centrifugation, lipids were extracted, and fatty acid methyl esters were prepared by trans-esterification, and subsequently analyzed with a Hewlett-Packard 6890 GC.
Construct pDMW297 was then used for transformation of strain Y2031 (Example 5) according to the General Methods. The transformant cells were plated onto MM selection media plates and maintained at 30° C. for 2 to 3 days. A total of 8 transformants grown on the MM plates were picked and re-streaked onto fresh MM plates. Once grown, these strains were individually inoculated into liquid MM at 30° C. and shaken at 250 rpm/min for 2 days. The cells were collected by centrifugation, lipids were extracted, and fatty acid methyl esters were prepared by trans-esterification, and subsequently analyzed with a Hewlett-Packard 6890 GC.

[1] = system: β-glucuronidase (GUS) reporter; test: Relative promoter activity rank from comparative GUS reporter studies (histochemical, fluorometric and/or Real Time PCR); type: cell-based, Yarrowia lipolytica; conditions: relative to other promoters
Procedure: The activity of GPM is about the same as TEF, while the activity of GPD, FBA, FBAIN, FBAINm, GPDIN, GPAT, YAT1 and EXP1 are all greater than TEF (activity is quantified in a relative manner in the column titled “Activity Rank”, wherein a ‘1’ corresponds to the promoter with lowest activity, while a ‘7’ corresponds to the promoter with highest activity). […] GUS activity in each expressed construct was measured by histochemical and/or fluorometric assays (Jefferson, R. A. Plant Mol. Biol. Reporter 5:387-405 (1987)) and/or by use of Real Time PCR.

Row | Molecule | Codon-Opt. Gene % Sub. Conv. (Yarrowia lipolytica) [%] | Activity “Rank” [1] | Native Gene % Sub. Conv. (Yarrowia lipolytica; expressed in Y. lipolytica) [%]
1 | B1 | 43 |  | 
2 | B2 |  | 5 | 
3 | B3 |  | 6 | 
4 | B4 | 32 |  | 7
5 | B5 | 30 |  | 
